{"source": "paper PMC9712993", "about": "“A noncanonical RNA-binding domain of the fragile X protein, FMRP, elicits translational repression independent of mRNA G-quadruplexes”", "target": "RGG+CTD (Homo sapiens, UniProt Q06787 527-632)", "assay": "EMSA; 10 mM Tris-HCl, 100 mM KCl, 5 mM Mg(OAc)2, pH 7.4, BSA, on ice 1 h; mRNA EMSA 0.4 pmol RNA + 20 pmol protein in 18 ul; oligo EMSA 0.2 (G17: 0.4) pmol RNA + 22 pmol protein in 7 ul; FP 5.5 pmol RNA + 300 pmol protein in 100 ul; EMSA gels 4% PAGE 0.5x TBM (2.5 mM MgCl2), RT", "conditions": "protein: recombinant; tags: N-MBP, C-His6; label: 5' FAM; single strand", "data": [{"binder": "UUUUUUUUUUUUUUUUUU (ssRNA)", "note": "[(U)18]", "values": [{"measurement": "binding result", "result": "binds"}]}]}
